Measured values reported in patent publication US12458691.

Tests used:
[1] = target: FP8-KLH (HIV-1 strain BG505); experiment: BLI (Octet), IgG on the sensor, apparent KD with IgG avidity
[2] = target: FP8-1Y12 (HIV-1 strain BG505); experiment: as above
[3] = target: FP8-3HSH (HIV-1 strain BG505); experiment: as above
[4] = target: FP-LS (Aquifex aeolicus (strain VF5)) (UniProt O66529); experiment: apparent KD (table head 'Apparent KD value (nM)'); Octet BLI with IgG on the sensor per paragraph 361
[5] = target: FP8-TTHc (sulfo-SIAB activation, 1:1 molar ratio) (HIV-1 strain BG505); experiment: Octet, purified conjugate
[6] = target: FP8-TTHc (sulfo-SIAB activation, 0.5:1 molar ratio) (HIV-1 strain BG505); experiment: Octet, purified conjugate
[7] = target: FP8-TTHc (MBS activation, 1:1 molar ratio) (HIV-1 strain BG505); experiment: Octet, purified conjugate
[8] = target: FP8-1Y12 (HIV-1 strain BG505); experiment: apparent KD; Octet BLI, antibody IgG on sensor (method per paragraph 361)
[9] = target: FP8-3HSH (HIV-1 strain BG505); experiment: as above
[10] = target: His-tagged fusion peptide (residue 512-521) (HIV-1 strain BG505); experiment: SPR, Fab over His-tagged fusion peptide on Ni-NTA chip, 1:1 fit

Sequence of FP8-KLH (HIV-1 strain BG505) (Q10583 17-3414): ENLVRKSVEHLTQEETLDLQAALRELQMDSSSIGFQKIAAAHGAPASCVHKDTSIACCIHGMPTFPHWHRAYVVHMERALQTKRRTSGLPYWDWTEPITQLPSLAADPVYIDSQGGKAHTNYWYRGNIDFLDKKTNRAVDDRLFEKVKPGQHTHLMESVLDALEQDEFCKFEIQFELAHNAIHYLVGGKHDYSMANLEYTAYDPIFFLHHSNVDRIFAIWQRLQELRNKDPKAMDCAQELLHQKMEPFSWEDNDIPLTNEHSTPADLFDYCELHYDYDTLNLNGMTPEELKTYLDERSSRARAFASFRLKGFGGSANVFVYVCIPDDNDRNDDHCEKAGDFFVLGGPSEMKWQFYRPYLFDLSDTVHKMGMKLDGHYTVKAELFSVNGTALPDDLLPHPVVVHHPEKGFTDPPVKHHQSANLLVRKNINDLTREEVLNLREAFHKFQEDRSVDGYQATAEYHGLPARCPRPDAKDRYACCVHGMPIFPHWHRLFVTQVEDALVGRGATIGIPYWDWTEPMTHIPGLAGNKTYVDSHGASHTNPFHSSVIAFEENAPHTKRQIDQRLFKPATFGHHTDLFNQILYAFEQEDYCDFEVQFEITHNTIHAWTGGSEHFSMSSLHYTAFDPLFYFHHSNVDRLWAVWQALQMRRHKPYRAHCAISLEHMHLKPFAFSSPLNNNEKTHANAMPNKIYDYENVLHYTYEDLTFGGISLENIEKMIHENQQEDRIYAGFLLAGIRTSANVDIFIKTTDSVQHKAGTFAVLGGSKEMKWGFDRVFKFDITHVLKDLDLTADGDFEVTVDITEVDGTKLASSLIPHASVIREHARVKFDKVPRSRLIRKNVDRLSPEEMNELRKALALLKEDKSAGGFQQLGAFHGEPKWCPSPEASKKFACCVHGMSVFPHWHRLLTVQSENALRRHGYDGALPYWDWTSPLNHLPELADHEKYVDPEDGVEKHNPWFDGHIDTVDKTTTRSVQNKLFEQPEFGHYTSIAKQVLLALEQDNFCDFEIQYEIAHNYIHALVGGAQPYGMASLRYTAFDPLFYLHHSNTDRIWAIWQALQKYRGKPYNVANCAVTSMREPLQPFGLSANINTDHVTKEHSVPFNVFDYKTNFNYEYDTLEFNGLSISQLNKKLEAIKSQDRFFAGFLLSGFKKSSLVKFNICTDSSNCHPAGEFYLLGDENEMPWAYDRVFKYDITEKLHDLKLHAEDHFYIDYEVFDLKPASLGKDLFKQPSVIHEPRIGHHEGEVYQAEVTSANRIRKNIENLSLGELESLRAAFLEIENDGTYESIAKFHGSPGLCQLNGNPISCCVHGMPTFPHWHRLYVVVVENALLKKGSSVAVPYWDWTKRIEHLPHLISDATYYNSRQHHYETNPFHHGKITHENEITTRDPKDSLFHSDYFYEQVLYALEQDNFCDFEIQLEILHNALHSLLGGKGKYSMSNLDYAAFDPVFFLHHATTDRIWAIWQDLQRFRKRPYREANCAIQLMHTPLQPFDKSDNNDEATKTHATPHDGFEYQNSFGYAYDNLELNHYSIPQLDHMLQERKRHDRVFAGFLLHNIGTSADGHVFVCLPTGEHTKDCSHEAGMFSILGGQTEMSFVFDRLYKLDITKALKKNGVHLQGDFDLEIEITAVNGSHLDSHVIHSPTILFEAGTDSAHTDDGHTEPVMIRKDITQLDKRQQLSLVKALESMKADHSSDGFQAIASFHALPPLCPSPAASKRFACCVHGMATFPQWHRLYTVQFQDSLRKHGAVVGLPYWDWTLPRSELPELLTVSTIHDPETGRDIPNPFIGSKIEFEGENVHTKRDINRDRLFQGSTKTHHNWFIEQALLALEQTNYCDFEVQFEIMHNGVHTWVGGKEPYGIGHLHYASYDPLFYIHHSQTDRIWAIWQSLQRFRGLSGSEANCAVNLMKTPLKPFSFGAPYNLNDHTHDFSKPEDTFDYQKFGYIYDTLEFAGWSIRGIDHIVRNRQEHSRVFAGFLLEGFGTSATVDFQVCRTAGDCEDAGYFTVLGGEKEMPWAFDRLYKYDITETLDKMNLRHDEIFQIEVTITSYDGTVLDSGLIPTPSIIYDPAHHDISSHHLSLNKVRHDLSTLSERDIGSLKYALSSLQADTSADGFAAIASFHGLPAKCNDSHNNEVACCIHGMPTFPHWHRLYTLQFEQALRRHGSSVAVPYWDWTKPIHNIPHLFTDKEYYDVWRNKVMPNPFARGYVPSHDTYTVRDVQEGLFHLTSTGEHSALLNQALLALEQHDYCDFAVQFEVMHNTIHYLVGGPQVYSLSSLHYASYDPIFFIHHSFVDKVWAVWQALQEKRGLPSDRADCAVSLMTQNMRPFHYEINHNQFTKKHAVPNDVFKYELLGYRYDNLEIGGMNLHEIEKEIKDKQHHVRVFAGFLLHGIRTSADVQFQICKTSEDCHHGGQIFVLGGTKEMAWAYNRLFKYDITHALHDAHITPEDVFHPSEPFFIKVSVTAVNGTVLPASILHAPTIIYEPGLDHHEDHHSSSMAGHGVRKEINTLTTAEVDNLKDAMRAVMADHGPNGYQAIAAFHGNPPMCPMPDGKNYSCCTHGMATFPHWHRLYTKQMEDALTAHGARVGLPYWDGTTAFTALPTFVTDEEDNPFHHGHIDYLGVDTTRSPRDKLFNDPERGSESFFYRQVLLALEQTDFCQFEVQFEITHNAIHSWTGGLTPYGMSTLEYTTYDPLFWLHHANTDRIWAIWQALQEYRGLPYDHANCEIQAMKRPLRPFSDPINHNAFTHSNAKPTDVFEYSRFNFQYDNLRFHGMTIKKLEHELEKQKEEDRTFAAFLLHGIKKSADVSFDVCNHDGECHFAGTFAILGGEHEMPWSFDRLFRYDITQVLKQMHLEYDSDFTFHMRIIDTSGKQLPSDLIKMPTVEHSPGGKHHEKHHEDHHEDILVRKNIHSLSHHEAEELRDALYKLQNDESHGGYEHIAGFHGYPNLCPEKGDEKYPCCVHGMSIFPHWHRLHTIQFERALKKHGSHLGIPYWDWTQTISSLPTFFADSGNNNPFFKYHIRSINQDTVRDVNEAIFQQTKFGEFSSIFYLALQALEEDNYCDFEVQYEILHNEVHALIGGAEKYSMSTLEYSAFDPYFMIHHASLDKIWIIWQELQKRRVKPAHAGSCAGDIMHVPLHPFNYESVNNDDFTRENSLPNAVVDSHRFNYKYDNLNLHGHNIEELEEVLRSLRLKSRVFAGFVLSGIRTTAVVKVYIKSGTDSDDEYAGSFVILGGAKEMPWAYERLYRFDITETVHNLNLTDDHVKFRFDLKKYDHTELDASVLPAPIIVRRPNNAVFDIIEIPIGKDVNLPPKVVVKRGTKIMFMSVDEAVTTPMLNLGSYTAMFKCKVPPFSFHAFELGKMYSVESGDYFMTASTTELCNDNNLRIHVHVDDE
Sequence of FP-LS (Aquifex aeolicus (strain VF5)) (O66529 other isoform, or with tags, fused parts or gaps): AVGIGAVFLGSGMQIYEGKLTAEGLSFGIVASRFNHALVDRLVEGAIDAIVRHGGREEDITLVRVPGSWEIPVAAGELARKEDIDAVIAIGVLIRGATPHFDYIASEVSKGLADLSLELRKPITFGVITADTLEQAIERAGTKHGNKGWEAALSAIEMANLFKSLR
Sequence of FP8-TTHc (sulfo-SIAB activation, 0.5:1 molar ratio) (HIV-1 strain BG505) (P04958 865-1315, tags left off): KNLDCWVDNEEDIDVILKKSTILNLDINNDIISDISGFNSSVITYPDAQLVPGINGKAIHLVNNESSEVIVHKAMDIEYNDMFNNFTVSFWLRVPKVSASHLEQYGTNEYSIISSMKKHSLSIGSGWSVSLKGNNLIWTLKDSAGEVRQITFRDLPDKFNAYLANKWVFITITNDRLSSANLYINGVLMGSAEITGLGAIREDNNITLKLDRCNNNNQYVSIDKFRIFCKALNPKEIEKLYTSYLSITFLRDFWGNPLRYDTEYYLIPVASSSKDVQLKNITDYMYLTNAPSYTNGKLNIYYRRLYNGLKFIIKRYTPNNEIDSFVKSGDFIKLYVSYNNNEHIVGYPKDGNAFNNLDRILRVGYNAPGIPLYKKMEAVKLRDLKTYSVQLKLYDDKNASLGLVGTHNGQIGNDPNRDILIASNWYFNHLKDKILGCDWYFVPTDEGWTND
Sequence of FP8-TTHc (sulfo-SIAB activation, 1:1 molar ratio) (HIV-1 strain BG505) (P04958 865-1315, tags left off): as above
Sequence of FP8-TTHc (MBS activation, 1:1 molar ratio) (HIV-1 strain BG505) (P04958 865-1315, tags left off): as above

Q: How did the Kd [1] turn out when ACS202 (antibody) was run?
A: The Kd was under 0.001 nM.

Q: Which Kd [2] does the source give for PGT151 (antibody) here?
A: The Kd was under 0.001 nM.

Q: What about the Kd [3] of the same substance?
A: Its Kd is 47.2 nM.

Q: What about the Kd [4] of the same substance?
A: The Kd was under 0.001 nM.

Q: What about the Kd [5] of the same substance?
A: Its Kd is 2.8 nM.

Q: What about the Kd [6] of the same substance?
A: The Kd was 3.6 nM.

Q: And the Kd [7]?
A: Its Kd is 2.3 nM.

Q: What about the Kd [8] of the same substance?
A: Its Kd is under 0.001 nM.

Q: And the Kd [9]?
A: Its Kd is under 0.001 nM.

Q: With VRC34.01 Fab as the substance, how does the Kd [10] read?
A: The Kd was 6.17 nM.

Q: And the koff [10]?
A: Its koff is 0.00924 s⁻¹.

Q: What about the kon [10] of the same substance?
A: The kon was 1.5e+06 M⁻¹ s⁻¹.
